Data reported in US20200087363A1 (IMMATICS BIOTECHNOLOGIES, published 2020).

Biological target: T1, HLA-B*44:05 (human)
T1 construct: also called peptide-receptive MHC class I molecule
Assay: UV peptide exchange, anti-b2m ELISA
Procedure, shortened: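 Peptide-receptive HLA-B*44:05 monomers after UV-induced exchange were diluted 100-fold and captured on streptavidin-coated plates for 1 h at 37 °C. Bound complexes were detected with 2 µg/ml HRP-anti-β2m (1 h, 37 °C) and TMB, read at 450 nm. β2m signal reflects peptide-stabilized complex yield.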

| Binder | peptide exchange yield [%] |
| --- | --- |
| EESLLSSW | 50 to 75 |
| YQENPRAAW | 20 to 50 |
| EEIFKTLNY | 50 to 75 |
| MDELEEGESY | 10 to 20 |
| SEIDEKVTDL | 50 to 75 |
| QTLKAMVQAW | 50 to 75 |
| SECVKSLSF | > 75 |
| TEQSLYYRQW | 50 to 75 |
| KEFYPVKEF | 20 to 50 |
| SEAGLTANQY | 50 to 75 |
| TELADLDAAW | > 75 |
| MEVDPIGHLYIF | > 75 |
| KEPSQSCIAQY | 10 to 20 |
| SEENTGKTY | 50 to 75 |
| AETSYVKVLEY | 50 to 75 |
| SEESAGPLL | 50 to 75 |

| Binder | peptide exchange yield [%] |
| --- | --- |
| AELFLTKSF | > 75 |
| TEFSNHINL | 50 to 75 |
| SLAELIAKDW | 20 to 50 |
| QETNKVETY | 50 to 75 |
| TEAQRLDCW | 50 to 75 |
| ELVHMINW | 20 to 50 |
| SEYPTKNYV | 20 to 50 |
| GEARGDQVDW | > 75 |
| EESLLSSWDF | 50 to 75 |
| AAFEDAQGHIW | > 75 |
| GEKATMQNL | 20 to 50 |
| EENIVAIGI | 50 to 75 |
| RLNEHPSNNW | 20 to 50 |
| TEGGTQKTF | 50 to 75 |
| QETLAESTW | 50 to 75 |
| SVISDSPRSW | 50 to 75 |
